Assay [1] addresses T1, Nectin-like-3 (UniProt Q8N3J6 25-367, limits assumed).
T1 construct: Bought recombinant protein; also called CADM2; IgSF4D
T1 sequence (looked up): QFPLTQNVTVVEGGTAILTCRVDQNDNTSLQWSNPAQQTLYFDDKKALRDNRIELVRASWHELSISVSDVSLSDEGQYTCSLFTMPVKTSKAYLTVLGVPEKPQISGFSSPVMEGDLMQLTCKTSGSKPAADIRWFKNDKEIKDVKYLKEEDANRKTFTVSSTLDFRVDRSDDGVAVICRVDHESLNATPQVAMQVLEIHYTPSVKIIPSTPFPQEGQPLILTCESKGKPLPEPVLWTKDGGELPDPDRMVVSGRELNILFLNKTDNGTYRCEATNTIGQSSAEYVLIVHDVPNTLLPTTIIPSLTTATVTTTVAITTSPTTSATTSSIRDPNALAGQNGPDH
In words: ELISA, coated antigen, antibody at 100 ng/ml. Here is the method:
(§1) Coating: Nectin-1, Nectin-2, Nectin-3, Nectin-4, Nectin-like-1, Nectin-like-2, Nectin-like-3, Nectin-like-4, and Nectin-like-5 were diluted to 5 μg/ml in coating buffer (carbonate buffer, pH 9.6) respectively. A 96-well plate was coat with 100 μl per well and incubated overnight at 2-8° C.;
(§2) Sample loading: The plate was taken out, patted dry, and washed twice with 200 μl/well of PBST, then patted dry. The Nectin-4 antibodies prepared in Example 1 (antibody MM11, antibody R012, and antibody R036) were diluted with 1% BSA/PBST to concentrations of 10 μg/ml, 1 μg/ml, 100 ng/ml, and 10 ng/ml, respectively. 1% BSA/PBST solution for dilution was set as a blank control. 100 μl per well was added to the 96-well plate, and incubated at room temperature for 2 hours;
(§3) Reaction termination and plate reading: 100 μl/well of 1 mol/L H3PO4 was added to terminate the reaction and the plated was read. The absorbances of wells in the plate at 450 nm with 650 nm as reference wavelength were read and recorded as OD_{450 nm-650 nm}.
In general terms: In an ELISA, binding on a coated surface is turned into a signal by an enzyme label.

The target of assay [2] is T2, Nectin-3 (UniProt Q9NQS3 58-404, limits assumed).
T2 construct: Bought recombinant protein; also called CD113; PVRL-3
In words: ELISA, coated antigen, antibody at 100 ng/ml. The method, then: as §1, §2, §3

For assay [3], the target named is T3, Nectin-like-5 (UniProt P15151 21-343).
T3 construct: Bought recombinant protein; also called CD155; PVR
T3 sequence (looked up): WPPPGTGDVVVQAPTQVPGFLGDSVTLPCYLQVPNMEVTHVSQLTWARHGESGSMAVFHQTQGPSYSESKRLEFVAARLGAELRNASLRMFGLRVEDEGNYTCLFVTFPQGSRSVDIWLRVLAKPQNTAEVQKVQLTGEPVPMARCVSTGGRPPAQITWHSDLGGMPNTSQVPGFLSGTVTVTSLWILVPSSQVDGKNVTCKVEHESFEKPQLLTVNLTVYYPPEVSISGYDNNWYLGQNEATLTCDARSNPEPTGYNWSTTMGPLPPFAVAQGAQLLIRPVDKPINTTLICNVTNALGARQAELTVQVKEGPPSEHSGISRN
The assay is described as follows: ELISA, coated antigen, antibody at 100 ng/ml. The method, then:
as §1, §2, §3

Assay [4] concerns the target T4, Nectin-2 (UniProt Q92692 32-360, limits assumed).
T4 construct: Bought recombinant protein; also called CD112; PVRL-2
T4 sequence (looked up): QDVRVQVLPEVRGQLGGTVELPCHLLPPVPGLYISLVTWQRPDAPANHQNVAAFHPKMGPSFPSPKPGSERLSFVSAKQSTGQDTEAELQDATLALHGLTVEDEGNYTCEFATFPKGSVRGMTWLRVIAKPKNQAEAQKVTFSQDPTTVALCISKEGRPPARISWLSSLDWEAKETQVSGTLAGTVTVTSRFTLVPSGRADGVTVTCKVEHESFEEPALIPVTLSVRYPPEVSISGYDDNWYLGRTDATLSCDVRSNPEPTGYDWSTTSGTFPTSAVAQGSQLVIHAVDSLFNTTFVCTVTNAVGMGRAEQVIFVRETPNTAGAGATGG
The assay is described as follows: ELISA, coated antigen, antibody at 100 ng/ml. The method, then: as §1, §2, §3

The target of assay [5] is T5, Nectin-like-4 (UniProt Q8NFZ8 21-324, limits assumed).
T5 construct: Bought recombinant protein; also called CADM4; IgSF4C
T5 sequence (looked up): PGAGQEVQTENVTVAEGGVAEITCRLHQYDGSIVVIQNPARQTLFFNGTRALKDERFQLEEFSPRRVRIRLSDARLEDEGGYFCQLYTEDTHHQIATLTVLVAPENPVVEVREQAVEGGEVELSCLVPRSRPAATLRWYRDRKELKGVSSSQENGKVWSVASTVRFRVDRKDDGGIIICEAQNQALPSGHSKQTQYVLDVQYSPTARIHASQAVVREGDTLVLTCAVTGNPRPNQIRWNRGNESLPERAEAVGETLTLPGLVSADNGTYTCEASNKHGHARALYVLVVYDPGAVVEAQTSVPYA
The assay is described as follows: ELISA, coated antigen, antibody at 100 ng/ml. Here is the method:
as §1, §2, §3

Assay [6] concerns the target T6, Nectin-1 (UniProt Q15223 31-334, limits assumed).
T6 construct: Bought recombinant protein; also called CD111; PVRL-1
T6 sequence (looked up): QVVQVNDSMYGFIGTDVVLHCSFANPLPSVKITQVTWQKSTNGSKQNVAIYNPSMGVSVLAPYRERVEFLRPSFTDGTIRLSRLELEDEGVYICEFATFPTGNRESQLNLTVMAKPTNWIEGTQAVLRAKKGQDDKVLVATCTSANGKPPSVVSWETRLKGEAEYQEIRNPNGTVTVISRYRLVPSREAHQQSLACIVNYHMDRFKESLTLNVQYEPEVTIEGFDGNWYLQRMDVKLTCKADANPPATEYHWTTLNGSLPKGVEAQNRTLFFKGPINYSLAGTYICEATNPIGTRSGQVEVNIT
In words: ELISA, coated antigen, antibody at 100 ng/ml. Here is the method:
as §1, §2, §3

For assay [7], the target named is T1, Nectin-like-3. In words: ELISA, coated antigen, 0 ng/ml antibody (blank control). Here is the method: as §1, §2, §3
For assay [8], the target named is T3, Nectin-like-5. The assay is described as above. The method, then:
as §1, §2, §3

The target in assay [9] is T4, Nectin-2. The assay is described as above. The method, then: as §1, §2, §3
In assay [10] the target is T5, Nectin-like-4. The description is as above. The method, then: as §1, §2, §3

Our source for the OD detection value values is US20260265354A1 (JIANGSU MABWELL HEALTH PHARMACEUTICAL R AND D, published 2026).

T2 sequence (Q9NQS3 58-404 limits assumed): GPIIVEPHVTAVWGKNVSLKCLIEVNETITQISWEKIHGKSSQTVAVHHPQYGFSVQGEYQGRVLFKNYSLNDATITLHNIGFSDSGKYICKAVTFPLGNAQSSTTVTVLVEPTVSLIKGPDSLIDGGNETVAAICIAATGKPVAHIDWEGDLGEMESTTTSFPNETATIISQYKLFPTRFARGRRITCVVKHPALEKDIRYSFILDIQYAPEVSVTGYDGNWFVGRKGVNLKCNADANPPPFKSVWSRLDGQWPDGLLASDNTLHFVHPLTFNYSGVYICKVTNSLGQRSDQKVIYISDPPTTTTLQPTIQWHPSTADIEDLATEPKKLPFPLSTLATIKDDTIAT

B1: Antibody R012 (antibody, V domains shown)
VH: SKSVEESGGRLVTPGTPLTLTCTVSGFSLSTYAMSWVRQAPGKGLEYIGIISGRGTTYYASWLKGRFTISKTSTTVDLKITSPTTEDTATYFCARDAGISDVYTGYFNLWGQGTLVTVSS
VL: QPVLAQLPSASAALGASAKLTCTLSSAHRTYTIAWYQQQQGEAPRYLMMLKSDGSYTKGTGVPDRFSGSSSGADRYLIISSVQAADEADYYCGADDSGGYVFGGGTQLTVTG
notes: Rabbit monoclonal antibody from phage display; also called Nectin-4 rabbit monoclonal antibody R012; rabbit antibody R012
B1: the OD detection value in assay [1] came to 0.008 OD450 nm-650 nm; in assay [2], 0.007 OD450 nm-650 nm; in assay [3] it was 0.008 OD450 nm-650 nm; in assay [4], 0.007 OD450 nm-650 nm; in assay [5] it was 0.008 OD450 nm-650 nm; in [6] it was 0.007 OD450 nm-650 nm. Besides, the OD detection value in [7] was determined as 0.008 OD450 nm-650 nm; in assay [8], 0.008 OD450 nm-650 nm; in [9] it was 0.009 OD450 nm-650 nm; in [10], 0.008 OD450 nm-650 nm.

B2: Antibody R036 (antibody, V domains shown)
VH: SQSVEESGGRLVTPGTPLTLTCTVSGFSLSSYAMSWVRQAPGKGLEYIGIIGGRGTTYYAIWAKGRFTISKTSTTVDLKITSPTTEDTATYFCARDAGTTYVGTTYVATGYFNLWGQGTLVTVSS
VL: QPVLTQPPSASAALGASAKLTCTLSSAHKTYTIAWYQQQQGEAPRYLMILKSDGSYTRGTGVPDRFSGSSSGADRYLIISSVQADDEADYYCGADDSGGYVFGGGTQLTVTG
notes: Rabbit monoclonal antibody from phage display; also called Nectin-4 rabbit monoclonal antibody R036; rabbit antibody R036
B2: the OD detection value in assay [1] turned out to be 0.007 OD450 nm-650 nm; in assay [2], 0.007 OD450 nm-650 nm; in assay [3], 0.009 OD450 nm-650 nm; in assay [4] it was 0.007 OD450 nm-650 nm; in assay [5], 0.007 OD450 nm-650 nm; in assay [6], 0.007 OD450 nm-650 nm. Moreover, the OD detection value is 0.007 OD450 nm-650 nm in [7], 0.008 OD450 nm-650 nm in assay [8], 0.007 OD450 nm-650 nm in assay [9] and 0.007 OD450 nm-650 nm in assay [10].

B3: Antibody MM11 (antibody, mouse IgG1, kappa, V domains shown)
VH: DVQLQESGPGLVKPSQSLSLTCSVTGYSITSNFYWNWIRQFPGNRLEWMGYISYDGSNNYNPSLKNRISISRDTSKNQFFLKLNSVTTEDTATYYCVRADYWGQGTLVTVSA
VL: DTVMTQTPLSLPVSLGDQASISCRSSQSLESSDGHAYLNWYLQKPGQSPQLLIYRVSNRFSGVLHRFSGSGSGTDFTLKISRVEAEDLGVYFCLQFTHVPFTFGSGTKLEIKR
notes: Mouse monoclonal antibody from hybridoma; also called Nectin-4 mouse monoclonal antibody MM11; mouse antibody MM11
On to B3, for which the OD detection value in assay [1] was 0.031 OD450 nm-650 nm; in assay [2], 0.014 OD450 nm-650 nm; in assay [3], 0.007 OD450 nm-650 nm; in [4], 0.007 OD450 nm-650 nm; in assay [5], 0.007 OD450 nm-650 nm; in [6] it was 0.008 OD450 nm-650 nm. For the same molecule, the OD detection value in [7] was 0.027 OD450 nm-650 nm; in [8], 0.011 OD450 nm-650 nm; in assay [9] it was 0.007 OD450 nm-650 nm; in assay [10], 0.008 OD450 nm-650 nm.
